Test results: paper PMC8376909, “Identification of a transcription factor, PunR, that regulates the purine and purine nucleoside transporter punC in E. coli”

T1: PunR (YdhB), LysR-family regulator (Escherichia coli K-12 (ASKA collection …, UniProt P0ACR2 1-310))
T1 sequence: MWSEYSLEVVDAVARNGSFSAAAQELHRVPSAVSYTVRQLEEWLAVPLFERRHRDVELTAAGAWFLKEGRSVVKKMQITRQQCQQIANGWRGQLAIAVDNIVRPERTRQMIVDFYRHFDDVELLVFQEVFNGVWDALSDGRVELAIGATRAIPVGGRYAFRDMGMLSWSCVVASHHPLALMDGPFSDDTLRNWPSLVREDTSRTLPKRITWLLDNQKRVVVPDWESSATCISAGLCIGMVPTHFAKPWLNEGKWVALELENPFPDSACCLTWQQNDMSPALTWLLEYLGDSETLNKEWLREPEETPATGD

B1: GguR binding site 26 bp (negative control) (dsDNA)
DNA 1: ACCCCCAGTCATCAGACAACCTCCCC
DNA 2: GGGGAGGTTGTCTGATGACTGGGGGT
B2: PunR-binding site 36 bp upstream of punC (dsDNA)
DNA 1: TGGGGACTGGTTTCAAAAATTTTGCAGGCAGAGGGG
DNA 2: CCCCTCTGCCTGCAAAATTTTTGAAACCAGTCCCCA

Columns and labels:
[1] = molecular target: T1, PunR (YdhB), LysR-family regulator; test: EMSA; 1 mM adenine; PunR up to 1.5 uM; 10 mM MgSO4; FP: 20 mM Tris-HCl pH 7.5, 0.1 M NaCl, 0.5 mM EDTA, 10 mM MgSO4, 2 mM DTT, 5 ug/ml herring sperm DNA, 10 nM DNA, 30 C 1 h; EMSA: PBS pH 8, 10 mM MgSO4, 2 mM DTT, 0.25 mM adenine (Methods; 1 or 10 mM in Results and Fig. S3), 100 nM DNA, 30 C 1 h then 25 C 1 h, 6% native PAGE Tris-glycine with 0.25 mM adenine; details: protein: recombinant; tags: N-terminal His6; chain copies: 4; label: 5' 6-carboxyfluorescein on printed strand; blunt
[2] = molecular target: T1, PunR (YdhB), LysR-family regulator; test: fluorescence polarization; 0.35 mM adenine; 10 mM MgSO4; FP: 20 mM Tris-HCl pH 7.5, 0.1 M NaCl, 0.5 mM EDTA, 10 mM MgSO4, 2 mM DTT, 5 ug/ml herring sperm DNA, 10 nM DNA, 30 C 1 h; EMSA: PBS pH 8, 10 mM MgSO4, 2 mM DTT, 0.25 mM adenine (Methods; 1 or 10 mM in Results and Fig. S3), 100 nM DNA, 30 C 1 h then 25 C 1 h, 6% native PAGE Tris-glycine with 0.25 mM adenine; details: protein: recombinant; tags: N-terminal His6; chain copies: 4; label: 5' 6-carboxyfluorescein on printed strand; blunt

Binder | binding result [1] | Kd [2] [nM]
B1 | no binding | –
B2 | – | 27
